The results in this text go back to US20250161505A1 (RIPTIDE BIOSCIENCE, published 2025).

In one experiment the target is T1, [68Ga]MART-1 (conjugated with the chelator DOTA complexed with 68Ga; attachment site not stated).
T1 construct: Synthetic control peptide with DOTA, radiolabeled with 68Ga under the same conditions as RP832c; also called 68Ga-labeled DOTA-MART-1; control tracer
As to the kind of experiment: protein plate binding assay on coated mouse CD206, gamma counting.

For the next experiment, the target named is T2, DOTA-MART-1 (conjugated with the chelator DOTA (no radiometal stated); attachment site not stated).
T2 construct: also called MART-1 peptide with DOTA
As to the kind of experiment: SPR (Biacore T200), CD206 immobilized on CM5 chip, peptide as analyte.

B1: CD206 mouse protein (receptor)
chain: LDARQFLIYNEDHKRCVDALSAISVQTATCNPEAESQKFRWVSDSQIMSVAFKLCLGVPSKTDWASVTLYACDSKSEYQKWECKNDTLFGIKGTELYFNYGNRQEKNIKLYKGSGLWSRWKVYGTTDDLCSRGYEAMYSLLGNANGAVCAFPFKFENKWYADCTSAGRSDGWLWCGTTTDYDKDKLFGFCPLHFEGSERLWNKDPLTGILYQINSKSALTWHQARASCKQQNADLLSVTEIHEQMYLTGLTSSLSSGLWIGLNSLSVRSGWQWAGGSPFRYLNWLPGSPSSEPGKSCVSLNPGKNAKWENLECVQKLGYICKKGNNTLNPFIIPSASDVPTGCPNQWWPYAGHCYRIHREEKKIQKYALQACRKEGGDLASIHSIEEFDFIFSQLGYEPNDELWIGLNDIKIQMYFEWSDGTPVTFTKWLPGEPSHENNRQEDCVVMKGKDGYWADRACEQPLGYICKMVSQSHAVVPEGADKGCRKGWKRHGFYCYLIGSTLSTFTDANHTCTNEKAYLTTVEDRYEQAFLTSLVGLRPEKYFWTGLSDVQNKGTFRWTVDEQVQFTHWNADMPGRKAGCVAMKTGVAGGLWDVLSCEEKAKFVCKHWAEGVTRPPEPTTTPEPKCPENWGTTSKTSMCFKLYAKGKHEKKTWFESRDFCKAIGGELASIKSKDEQQVIWRLITSSGSYHELFWLGLTYGSPSEGFTWSDGSPVSYENWAYGEPNNYQNVEYCGELKGDPGMSWNDINCEHLNNWICQIQKGKTLLPEPTPAPQDNPPVTADGWVIYKDYQYYFSKEKETMDNARAFCKKNFGDLATIKSESEKKFLWKYINKNGGQSPYFIGMLISMDKKFIWMDGSKVDFVAWATGEPNFANDDENCVTMYTNSGFWNDINCGYPNNFICQRHNSSINATAMPTTPTTPGGCKEGWHLYKNKCFKIFGFANEEKKSWQDARQACKGLKGNLVSIENAQEQAFVTYHMRDSTFNAWTGLNDINAEHMFLWTAGQGVHYTNWGKGYPGGRRSSLSYEDADCVVVIGGNSREAGTWMDDTCDSKQGYICQTQTDPSLPVSPTTTPKDGFVTYGKSSYSLMKLKLPWHEAETYCKDHTSLLASILDPYSNAFAWMKMHPFNVPIWIALNSNLTNNEYTWTDRWRVRYTNWGADEPKLKSACVYMDVDGYWRTSYCNESFYFLCKKSDEIPATEPPQLPGKCPESEQTAWIPFYGHCYYFESSFTRSWGQASLECLRMGASLVSIETAAESSFLSYRVEPLKSKTNFWIGMFRNVEGKWLWLNDNPVSFVNWKTGDPSGERNDCVVLASSSGLWNNIHCSSYKGFICKMPKIIDPVTTHSSITTKADQRKMDPQPKGSSKA
notes: Bought protein coated on a 96 well plate (1 ug per well); also called mouse CD206 protein; murine CD206
Turning to B1, the binding result in experiment [68Ga]MART-1 is “no binding (tested: 50 nM)”.

B2: Recombinant human CD206 (receptor)
chain: LLDTRQFLIYNEDHKRCVDAVSPSAVQTAACNQDAESQKFRWVSESQIMSVAFKLCLGVPSKTDWVAITLYACDSKSEFQKWECKNDTLLGIKGEDLFFNYGNRQEKNIMLYKGSGLWSRWKIYGTTDNLCSRGYEAMYTLLGNANGATCAFPFKFENKWYADCTSAGRSDGWLWCGTTTDYDTDKLFGYCPLKFEGSESLWNKDPLTSVSYQINSKSALTWHQARKSCQQQNAELLSITEIHEQTYLTGLTSSLTSGLWIGLNSLSFNSGWQWSDRSPFRYLNWLPGSPSAEPGKSCVSLNPGKNAKWENLECVQKLGYICKKGNTTLNSFVIPSESDVPTHCPSQWWPYAGHCYKIHRDEKKIQRDALTTCRKEGGDLTSIHTIEELDFIISQLGYEPNDELWIGLNDIKIQMYFEWSDGTPVTFTKWLRGEPSHENNRQEDCVVMKGKDGYWADRGCEWPLGYICKMKSRSQGPEIVEVEKGCRKGWKKHHFYCYMIGHTLSTFAEANQTCNNENAYLTTIEDRYEQAFLTSFVGLRPEKYFWTGLSDIQTKGTFQWTIEEEVRFTHWNSDMPGRKPGCVAMRTGIAGGLWDVLKCDEKAKFVCKHWAEGVTHPPKPTTTPEPKCPEDWGASSRTSLCFKLYAKGKHEKKTWFESRDFCRALGGDLASINNKEEQQTIWRLITASGSYHKLFWLGLTYGSPSEGFTWSDGSPVSYENWAYGEPNNYQNVEYCGELKGDPTMSWNDINCEHLNNWICQIQKGQTPKPEPTPAPQDNPPVTEDGWVIYKDYQYYFSKEKETMDNARAFCKRNFGDLVSIQSESEKKFLWKYVNRNDAQSAYFIGLLISLDKKFAWMDGSKVDYVSWATGEPNFANEDENCVTMYSNSGFWNDINCGYPNAFICQRHNSSINATTVMPTMPSVPSGCKEGWNFYSNKCFKIFGFMEEERKNWQEARKACIGFGGNLVSIQNEKEQAFLTYHMKDSTFSAWTGLNDVNSEHTFLWTDGRGVHYTNWGKGYPGGRRSSLSYEDADCVVIIGGASNEAGKWMDDTCDSKRGYICQTRSDPSLTNPPATIQTDGFVKYGKSSYSLMRQKFQWHEAETYCKLHNSLIASILDPYSNAFAWLQMETSNERVWIALNSNLTDNQYTWTDKWRVRYTNWAADEPKLKSACVYLDLDGYWKTAHCNESFYFLCKRSDEIPATEPPQLPGRCPESDHTAWIPFHGHCYYIESSYTRNWGQASLECLRMGSSLVSIESAAESSFLSYRVEPLKSKTNFWIGLFRNVEGTWLWINNSPVSFVNWNTGDPSGERNDCVALHASSGFWSNIHCSSYKGYICKRPKIIDAKPTHELLTTKADTRKMDPSK
notes: Bought protein, amine-coupled to a CM5 chip (about 5000 RU)
For B2, in the experiment with DOTA-MART-1, the binding result is listed as “no binding (tested: 0.5 uM-10 uM)”.
